Measured values published in patent publication US9193963B2, “Mutant endoglucanase” (Toray Industries, Inc., priority 2011, dated 2015).
Residue numbers refer to the chain shown, from its start.

How the values were obtained:
[1] = Saccharification of lignocellulose 1 with Trichoderma reesei culture solution and endoglucanase; type: biochemical, Rice straw; conditions: Lignocellulose 1, 24 hours; cellulase 1.0 mg/mL + endoglucanase 0.1 mg/mL + β-glucosidase (Novozyme 188) 0.01 mg/mL
Experimental: (§1) Rice straw was used as cellulose. The cellulose was added to a small reactor (Taiatsu Techno Corporation, TVS-N2 (30 ml)), and then cooled with liquid nitrogen. An ammonia gas was fed to the reactor, thereby completely immersing the sample in the liquid ammonia. The reactor was closed using its lid, and then left to stand at room temperature for 15 minutes. Subsequently, treatment was performed for 1 hour in an oil bath at 150° C. After treatment, the reactor was removed from the oil bath, an ammonia gas leak was immediately performed within a draft chamber. The reactor was vacuumed using a vacuum pump to 10 Pa for drying. The resultant was used as lignocellulose 1 in the following examples.
(§2) The changes in the amount of glucose generated when the enzyme composition had been caused to act on lignocellulose substrates were compared. The substrates were prepared by suspending 5 wt % lignocelluloses (1 to 3) (prepared in Reference Example 3) in 50 mM acetate buffer (pH5.2). Reactions were performed at 50° C. for 24 hours. The concentrations of the generated glucose were measured after adequate sampling. As a filamentous bacterium-derived cellulase mixture, commercially available Trichoderma reesei-derived cellulase (Celluclast, Sigma) was used. As endoglucanases, the mutant endoglucanases prepared in Example 2 and the wild-type endoglucanases prepared in Reference Example 1 were separately used. The following quantities of enzymes were added: 1.0 mg/mL cellulase, and 0.1 mg/mL endoglucanase (in an amount one tenth that of the cellulase).
(§3) Lignocelluloses (1-3) prepared in Reference Example 3 were used as substrates. The Trichoderma reesei culture solution prepared in Reference Example 4 was used as a filamentous bacterium-derived cellulase mixture. Lignocelluloses (1-3) were hydrolyzed in a manner similar to that in Example 7, except for the quantities of the enzymes added: cellulase (1.0 mg/mL); endoglucanase (0.1 mg/mL (in an amount one tenth that of the cellulase); and β-glucosidase (Novozyme 188) (0.01 mg/mL (in an amount one hundredth that of the cellulase).

[2] = Saccharification of lignocellulose 2 with Trichoderma reesei culture solution and endoglucanase; type: biochemical, Rice straw; conditions: Lignocellulose 2, 24 hours; cellulase 1.0 mg/mL + endoglucanase 0.1 mg/mL + β-glucosidase (Novozyme 188) 0.01 mg/mL
Experimental: (§4) Rice straw was used as cellulose. Cellulose was immersed in a 1% aqueous sulfuric acid solution, and then autoclaved for 30 minutes at 150° C. (Nitto Koatsu Co. Ltd.). After treatment, the resultant was subjected to solid-liquid separation into an aqueous sulfuric acid solution (hereinafter, referred to as “dilute-sulfuric-acid-treated solution”) and cellulose treated with sulfuric acid. Next, the cellulose treated with sulfuric acid was mixed and agitated with the dilute-sulfuric-acid-treated solution so that the solid content concentration was 10 wt %. Then the mixture was adjusted to around pH 5 using sodium hydroxide. The resultant was used as lignocellulose 2 for the following examples.
as §2, §3

[3] = Saccharification of lignocellulose 3 with Trichoderma reesei culture solution and endoglucanase; type: biochemical, Rice straw; conditions: Lignocellulose 3, 24 hours; cellulase 1.0 mg/mL + endoglucanase 0.1 mg/mL + β-glucosidase (Novozyme 188) 0.01 mg/mL
Experimental: (§5) Rice straw was used as cellulose. The cellulose was immersed in water, and then autoclaved with agitation at 180° C. for 20 minutes (Nitto Koatsu Co. Ltd.). Pressure at this time was 10 MPa. After treatment, a solution component (hereinafter, referred to as “hydrothermally treated solution”) and the treated biomass component were subjected to solid-liquid separation by centrifugation (3000 G). The thus treated biomass component was used as lignocellulose 3 for the following examples.
as §2, §3

[4] = Saccharification of lignocellulose 1 with Celluclast and endoglucanase; type: biochemical, Rice straw; conditions: 5 wt % Lignocellulose 1, pH 5.2, 50° C., 24 hours; 1.0 mg/mL cellulase + 0.1 mg/mL endoglucanase
Experimental: as §1, §2

[5] = Inhibition experiment with ferulic acid: degradation of phosphoric acid swollen cellulose; type: biochemical; conditions: enzyme 0.5 μM, 1 hour, 50° C., parent at 0 mM = 100%
Experimental: (§6) This substance was diluted using buffer and water to obtain a 2 wt % mixture so that the final concentration of sodium acetate was 50 mM (pH 5.2). This was designated as phosphoric acid swollen cellulose and used for the following examples.
The activity of the wild-type and the mutant endoglucanases to degrade phosphoric acid swollen cellulose was measured in the presence of ferulic acid. 1% phosphoric acid swollen cellulose/50 mM acetate buffer (pH 5.2) was used as a substrate. Ferulic acid (Sigma Aldrich) was added at final concentrations of 0, 5, 10, and 15 mM. The enzymes prepared in Reference Example 1 and Example 2 were each added at a final concentration of 0.5 μM, followed by 1 hour of enzymatic reaction at 50° C.

[6] = Activity to degrade phosphoric acid swollen cellulose; type: biochemical; conditions: 1% phosphoric acid swollen cellulose, pH 5.2, enzyme 0.5 μM, 1 hour, 50° C.; glucose generated by each parent endoglucanase = 100%
Experimental: The term “identity” refers to the percentage of amino acid residues identical to and amino acid residues analogous to the other amino acid residues in all the amino acid residues overlapped when an optimum alignment is performed by introducing gaps or no gaps into two amino acid sequences and then aligning the two amino acid sequences. Such an identity can be found using a method known by persons skilled in the art, sequence analysis software, and the like (a known algorithm such as BLAST or FASTA). The term “endoglucanase activity” is as defined above and can be determined by adding an enzyme solution to a substrate solution of phosphoric acid swollen cellulose that has been dissolved in 50 mM acetic acid-sodium acetate buffer (pH 5.2) or the like, performing 1 hour of reaction at 30° C. to 85° C., stopping the reaction by changing the pH if necessary, and then determining the concentration of glucose in the reaction solution using a glucose determination kit, for example.
The mutants obtained in Comparative Example 1 were compared in terms of activity by a technique similar to that in Example 3. The concentration (g/L) of glucose generated by each parent endoglucanase under the above reaction conditions was determined to be 100%.

[7] = Inhibition experiment with vanillin: degradation of phosphoric acid swollen cellulose; type: biochemical; conditions: enzyme 0.5 μM, 1 hour, 50° C., parent at 0 mM = 100%
Experimental: as §6
The activity of the wild-type and the mutant endoglucanases to degrade phosphoric acid swollen cellulose in the presence of vanillin was measured. 1% phosphoric acid swollen cellulose/50 mM acetate buffer (pH 5.2) was used as a substrate. Vanillin (Sigma Aldrich) was added at final concentrations of 0, 5, 10, and 15 mM. The enzymes prepared in Reference Example 1 and Example 2 were added at a final concentration of 0.5 μM, followed by 1 hour of enzymatic reaction at 50° C.

[8] = Saccharification of lignocellulose 3 with Celluclast and endoglucanase; type: biochemical, Rice straw; conditions: 5 wt % Lignocellulose 3, pH 5.2, 50° C., 24 hours; 1.0 mg/mL cellulase + 0.1 mg/mL endoglucanase
Experimental: as §5, §2

[9] = Saccharification of lignocellulose 2 with Celluclast and endoglucanase; type: biochemical, Rice straw; conditions: 5 wt % Lignocellulose 2, pH 5.2, 50° C., 24 hours; 1.0 mg/mL cellulase + 0.1 mg/mL endoglucanase
Experimental: as §4, §2

B1: EGSt Wild-type: Spirochaeta thermophile-derived endoglucanase, SEQ ID NO: 37, parent endoglucanase (protein)
chain: MKYLRTILLSLLVFLITLGCSLPFLDVSGKGGTAARATELRVGRLTGVNWFGFETGNHVVHGLWARDYKSMLKQIADLGFNCIRIPWANEMIDKAPNSIQINPSGVDPYTGEQGLNLDLEGLSSLEVLDKIIEEANRLGLYVILDNHSRAADGYMNETLWYTDEYPEERWISDWVMMVRRYKNYPNVIGADLNNEPHGNTGTGMKPPATWGYTLPEYGDTDWKAAAERCAAAILAENPNLYIIVEGVEEYQGDTYWWGGNLKGVRDYPITSIPAENLIYSPHEYGPEVYNQSWFSDPTFPDNMPAIWDEHFWFIYKENIAPVLIGEFGIKEASAADPSSVAYQWFTTFMAYVGDKASWTFWSWNPNSGDTGGILKDDWVTVNEAKYNLIRPYLANPPQPTATPTPTGTPTPTPTPTPTPTPTPTPTPTPTPTATPTPTPTPTPTPTPTPTATPTPSGEYTEIALPFSYDGAGEYYWKTDQFSTDPNDWSRYVNSWNLDLLEINGTDYTNVWVAQHQIPAASDGYWYIHYKSGVSWGHVEIK
modifications: Spirochaeta thermophila EGSt
Concentration of glucose generated, Culture solution + Wild-type [1]: 8 g/L
Concentration of glucose generated, Culture solution + Wild-type [2]: 9 g/L
Concentration of glucose generated, Culture solution + Wild-type [3]: 8 g/L
Concentration of glucose generated, Celluclast + Wild-type [4]: 11 g/L
Relative activity to degrade phosphoric acid swollen cellulose ([5]; ferulic acid 0 mM): 100%
Relative activity to degrade phosphoric acid swollen cellulose ([5]; ferulic acid 5 mM): 50%
Relative activity to degrade phosphoric acid swollen cellulose ([5]; ferulic acid 10 mM): 45%
Relative activity to degrade phosphoric acid swollen cellulose ([5]; ferulic acid 15 mM): 40%
Relative activity [6]: 100%
Relative activity to degrade phosphoric acid swollen cellulose ([7]; vanillin 0 mM): 100%
Relative activity to degrade phosphoric acid swollen cellulose ([7]; vanillin 5 mM): 50%
Relative activity to degrade phosphoric acid swollen cellulose ([7]; vanillin 10 mM): 50%
Relative activity to degrade phosphoric acid swollen cellulose ([7]; vanillin 15 mM): 45%
Concentration of glucose generated, Celluclast + Wild-type [8]: 11 g/L
Concentration of glucose generated, Celluclast + Wild-type [9]: 12 g/L

B2: EGSt Mutant: mutant EGSt, SEQ ID NO: 38; residue corresponding to 273rd tryptophan substituted with alanine (protein)
chain: B1 chain with W257A
modifications: Spirochaeta thermophila EGSt W257A
notes: residue corresponding to 273rd tryptophan substituted with alanine
Concentration of glucose generated, Culture solution + Mutant [1]: 11 g/L
Concentration of glucose generated, Culture solution + Mutant [2]: 12 g/L
Concentration of glucose generated, Culture solution + Mutant [3]: 11 g/L
Concentration of glucose generated, Celluclast + Mutant [4]: 14 g/L
Relative activity to degrade phosphoric acid swollen cellulose ([5]; ferulic acid 0 mM): 100%
Relative activity to degrade phosphoric acid swollen cellulose ([5]; ferulic acid 5 mM): 100%
Relative activity to degrade phosphoric acid swollen cellulose ([5]; ferulic acid 10 mM): 100%
Relative activity to degrade phosphoric acid swollen cellulose ([5]; ferulic acid 15 mM): 90%
Relative activity [6]: 100%
Relative activity to degrade phosphoric acid swollen cellulose ([7]; vanillin 0 mM): 100%
Relative activity to degrade phosphoric acid swollen cellulose ([7]; vanillin 5 mM): 100%
Relative activity to degrade phosphoric acid swollen cellulose ([7]; vanillin 10 mM): 100%
Relative activity to degrade phosphoric acid swollen cellulose ([7]; vanillin 15 mM): 90%
Concentration of glucose generated, Celluclast + Mutant [8]: 14 g/L
Concentration of glucose generated, Celluclast + Mutant [9]: 15 g/L

B3: EGAc Mutant: mutant EGAc, SEQ ID NO: 32; residue corresponding to 273rd tryptophan substituted with alanine (protein)
chain: MPRALRRVPGSRVMLRVGVVVAVLALVAALANLAVPRPARAAGGGYWHTSGREILDANNVPVRIAGINWFGFETCNYVVHGLWSRDYRSMLDQIKSLGYNTIRLPYSDDILKPGTMPNSINFYQMNQDLQGLTSLQVMDKIVAYAGQIGLRIILDRHRPDCSGQSALWYTSSVSEATWISDLQALAQRYKGNPTVVGFDLHNEPHDPACWGCGDPSIDWRLAAERAGNAVLSVNPNLLIFVEGVQSYNGDSYWAGGNLQGAGQYPVVLNVPNRLVYSAHDYATSVYPQTWFSDPTFPNNMPGIWNKNWGYLFNQNIAPVWLGEFGTTLQSTTDQTWLKTLVQYLRPTAQYGADSFQWTFWSWNPDSGDTGGILKDDWQTVDTVKDGYLAPIKSSIFDPVGASASPSSQPSPSVSPSPSPSPSASRTPTPTPTPTASPTPTLTPTATPTPTASPTPSPTAASGARCTASYQVNSDWGNGFTVTVAVTNSGSVATKTWTVSWTFGGNQTITNSWNAAVTQNGQSVTARNMSYNNVIQPGQNTTFGFQASYTGSNAAPTVACAAS
modifications: Acidthermus cellulolyticus EGAc W254A
notes: as for B2
Concentration of glucose generated, Culture solution + Mutant [1]: 13 g/L
Concentration of glucose generated, Culture solution + Mutant [2]: 11 g/L
Concentration of glucose generated, Culture solution + Mutant [3]: 11 g/L
Concentration of glucose generated, Celluclast + Mutant [4]: 16 g/L
Relative activity to degrade phosphoric acid swollen cellulose ([5]; ferulic acid 0 mM): 100%
Relative activity to degrade phosphoric acid swollen cellulose ([5]; ferulic acid 5 mM): 100%
Relative activity to degrade phosphoric acid swollen cellulose ([5]; ferulic acid 10 mM): 100%
Relative activity to degrade phosphoric acid swollen cellulose ([5]; ferulic acid 15 mM): 95%
Relative activity [6]: 100%
Relative activity to degrade phosphoric acid swollen cellulose ([7]; vanillin 0 mM): 100%
Relative activity to degrade phosphoric acid swollen cellulose ([7]; vanillin 5 mM): 100%
Relative activity to degrade phosphoric acid swollen cellulose ([7]; vanillin 10 mM): 95%
Relative activity to degrade phosphoric acid swollen cellulose ([7]; vanillin 15 mM): 95%
Concentration of glucose generated, Celluclast + Mutant [8]: 14 g/L
Concentration of glucose generated, Celluclast + Mutant [9]: 14 g/L
